The record followed here is patent US20230331827A1, “POTASSIUM CHANNEL INHIBITORS” (priority 2017, published 2023).

Assay [1] concerns the target human Kv1.3 (human) (UniProt P22001). As to the kind of experiment: cell-based or functional assay.
A further assay concerns the target human Kv1.1 (human) (UniProt Q09470). As to the kind of experiment: cell-based or functional assay.
Assay [2] addresses human Kv1.3 (human) (UniProt P22001). As to the kind of experiment: cell-based or functional assay. The source holds these as a separate data set.
The target in the next assay is β-galactosidase. Briefly: phage TRF on β-galactosidase.
Sequence of β-galactosidase (P00722 2-1024): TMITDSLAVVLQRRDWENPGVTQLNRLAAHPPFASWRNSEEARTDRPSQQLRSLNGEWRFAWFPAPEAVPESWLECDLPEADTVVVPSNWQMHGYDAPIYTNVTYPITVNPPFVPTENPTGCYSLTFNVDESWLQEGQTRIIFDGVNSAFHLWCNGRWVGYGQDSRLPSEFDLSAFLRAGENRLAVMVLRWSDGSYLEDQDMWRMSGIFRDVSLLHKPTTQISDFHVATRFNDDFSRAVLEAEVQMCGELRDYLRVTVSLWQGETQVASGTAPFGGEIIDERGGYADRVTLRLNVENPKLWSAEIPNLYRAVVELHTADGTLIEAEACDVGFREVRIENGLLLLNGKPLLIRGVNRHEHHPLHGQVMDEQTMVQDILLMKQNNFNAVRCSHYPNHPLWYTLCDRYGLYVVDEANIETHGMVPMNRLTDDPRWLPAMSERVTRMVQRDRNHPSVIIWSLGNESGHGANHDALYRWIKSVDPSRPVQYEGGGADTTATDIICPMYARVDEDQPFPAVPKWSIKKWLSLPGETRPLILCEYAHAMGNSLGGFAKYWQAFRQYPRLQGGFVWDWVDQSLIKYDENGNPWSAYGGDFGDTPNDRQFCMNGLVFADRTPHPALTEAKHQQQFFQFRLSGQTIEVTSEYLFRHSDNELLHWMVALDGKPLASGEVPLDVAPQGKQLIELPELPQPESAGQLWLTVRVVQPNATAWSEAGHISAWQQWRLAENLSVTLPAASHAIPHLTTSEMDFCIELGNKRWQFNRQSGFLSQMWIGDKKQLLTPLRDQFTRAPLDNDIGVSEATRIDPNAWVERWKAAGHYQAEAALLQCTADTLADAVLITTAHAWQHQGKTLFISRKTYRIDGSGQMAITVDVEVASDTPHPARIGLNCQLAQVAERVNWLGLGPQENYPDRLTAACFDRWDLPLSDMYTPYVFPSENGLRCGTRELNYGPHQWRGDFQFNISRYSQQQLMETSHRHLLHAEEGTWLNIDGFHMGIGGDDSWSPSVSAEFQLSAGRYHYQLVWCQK
The next assay addresses trypsin. As to the kind of experiment: monoclonal phage ELISA on trypsin. On the technique in general: An ELISA detects its analyte on a solid surface through an enzyme-linked reagent.

Residue numbers refer to the chain shown, from its start. Names and notes keep the numbering of the source. Read-outs that look alike come from different tables or passages of the source.

Sequence of human Kv1.3 (human) (P22001 whole entry): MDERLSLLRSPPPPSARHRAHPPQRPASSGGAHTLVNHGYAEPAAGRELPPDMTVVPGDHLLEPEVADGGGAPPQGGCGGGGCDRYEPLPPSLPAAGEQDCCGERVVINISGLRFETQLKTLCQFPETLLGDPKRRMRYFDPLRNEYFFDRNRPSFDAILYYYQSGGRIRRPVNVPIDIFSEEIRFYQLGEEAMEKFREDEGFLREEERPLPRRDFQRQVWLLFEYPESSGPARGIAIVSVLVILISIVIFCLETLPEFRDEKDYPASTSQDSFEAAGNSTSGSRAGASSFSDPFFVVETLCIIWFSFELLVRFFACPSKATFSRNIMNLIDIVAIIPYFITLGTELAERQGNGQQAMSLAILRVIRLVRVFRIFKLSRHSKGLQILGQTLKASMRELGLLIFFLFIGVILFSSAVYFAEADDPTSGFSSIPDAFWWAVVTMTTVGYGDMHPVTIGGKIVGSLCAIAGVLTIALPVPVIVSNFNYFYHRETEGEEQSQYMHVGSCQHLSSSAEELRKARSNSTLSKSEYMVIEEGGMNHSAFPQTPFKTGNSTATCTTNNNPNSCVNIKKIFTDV
Sequence of human Kv1.1 (human) (Q09470 whole entry): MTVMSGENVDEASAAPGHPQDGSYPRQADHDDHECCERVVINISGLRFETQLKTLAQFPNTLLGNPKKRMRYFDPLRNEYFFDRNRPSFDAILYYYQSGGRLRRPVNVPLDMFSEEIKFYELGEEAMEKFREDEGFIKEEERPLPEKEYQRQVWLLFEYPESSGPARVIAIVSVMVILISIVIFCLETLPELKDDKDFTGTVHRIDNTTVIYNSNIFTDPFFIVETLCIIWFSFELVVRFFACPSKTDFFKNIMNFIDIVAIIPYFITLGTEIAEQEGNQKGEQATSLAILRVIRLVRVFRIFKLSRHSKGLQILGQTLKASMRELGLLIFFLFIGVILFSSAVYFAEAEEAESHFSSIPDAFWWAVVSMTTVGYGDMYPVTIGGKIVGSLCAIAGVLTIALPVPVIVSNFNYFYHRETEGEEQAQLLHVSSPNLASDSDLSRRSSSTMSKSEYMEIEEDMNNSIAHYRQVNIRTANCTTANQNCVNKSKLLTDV

B1: KB_A12_KTX (antibody)
VH: EVQLVESGGGLVRPGGSLRLSCAASGFTFSSYAMSWVRQAPGKGLEWVSAISGSGGSTYYADSVKGRFTISRDNTKNSLYLQMTSLRADDTAFYYCVKDFGPGYGTGWFDYWGPGTLVTVSS
VL: QSVLTQPPSVSEAPRQRVTITCSGSSSNIGNNAVNWYQQLPGKAPKLLIYAAGRGVEINVKCSGSPQCLKPCKDAGMRFGKCMNRKCHCTPKANSGVSDRFSAAKSGTSASLAINGLRSEDEADYYCAAWDDSLNGYVFGTGTKLTVLGQP
Molecule B1 gave an IC50, huKv1.3 current, QPatch patch clamp with human Kv1.3 (human) [1] of 430 nM. Also, the Kv1.1 IC50, QPatch patch clamp with human Kv1.1 (human) was 4800 nM. In the assay with human Kv1.3 (human) [2], this molecule showed a Fold difference (Kv1.1 IC50 against Kv1.3 IC50) of 3 fold; an IC50, huKv1.3 current, QPatch patch clamp of over 10000 nM; a Kv1.3 IC50, QPatch patch clamp of 1540 nM.

B2: KB_A12_Odk2 short (antibody, V domains shown)
VH: B1 VH
VL: NWYQQLPGKAPKLLIYAAGRVKCRGSPQCIQPCKDAGMRFGKCMNGKCHCTPKANSGVSDRFSAAKSGTSASLAINGLRSEDEADYYCAAWDDSLNGYVFGTGTKLTVLG
In the assay with human Kv1.3 (human) [1], B2 showed an IC50, huKv1.3 current, QPatch patch clamp of 64 nM. In addition, the Kv1.1 IC50, QPatch patch clamp with human Kv1.1 (human) is 380 nM. For the same molecule, in the assay with human Kv1.3 (human) [2], the Fold difference (Kv1.1 IC50 against Kv1.3 IC50) is 8 fold and the Kv1.3 IC50, QPatch patch clamp was determined as 49 nM.

B3: KB_A12_B-gal_F03 (scFv, V domains shown)
VH: B1 VH
VL: AVNWYQQLPGKAPKLLIYAAGRCLATTSIRRHCKQDSDCLAGCVCGPNGFCGANSGVSDRFSAAKSGTSASLAINGLRSEDEADYYCAAWDDSLNGYVFGTGTKLTVLG
In the assay with β-galactosidase, B3 had a TRF signal of 289000.

B4: KB_A12_B-gal_F07 (scFv, V domains shown)
VH: B1 VH
VL: B3 VL with L24R, A25T, T27A, S28N, I29V
In turn, B4 showed a TRF signal in the assay with β-galactosidase of 246000.

B5: E01 (EET 5-3 KnotBody) (scFv, V domains shown)
VH: B1 VH
VL: AVNWYQQLPGKAPKLLIYAAGGCGPNGFCGSGSDGGVCPRILMRCKQDSDCLAGCGIHSGVSDRFSDSKSGTSASLAISGLQSEDEADYYCAAWDDSLNGYVFGTGTKLTVLG
For B5, the ELISA signal in the assay with trypsin stood at 128000.

B6: KB_A12_AnTx-N17A/F32T (antibody, V domains shown)
VH: B1 VH
VL: QSVLTQPPSVSEAPRQRVTITCSGSSSNIGNNAVNWYQQLPGKAPKLLIYAAGRQKECTGPQHCTNFCRKAKCTHGKCMNRKCKCTNCKANSGVSDRFSAAKSGTSASLAINGLRSEDEADYYCAAWDDSLNGYVFGTGTKLTVLG
For B6, the IC50, huKv1.3 current, QPatch patch clamp with human Kv1.3 (human) [1] is 85 nM. The Kv1.1 IC50, QPatch patch clamp with human Kv1.1 (human) was 10300 nM. Besides, in the assay with human Kv1.3 (human) [2], the Fold difference (Kv1.1 IC50 against Kv1.3 IC50) was 94 fold and the Kv1.3 IC50, QPatch patch clamp came to 110 nM.

B7: F01 (EET 5-3 KnotBody) (scFv, V domains shown)
VH: B1 VH
VL: YLNWYQQKPGKAPKLLIDAAGECGPNGFCGSGSDGGVCPRINMRCKQDSDCLAGCGRDSGVPSRFSGSGSGTDFTLTISSLQPEDFATYYCQQSYSTPWTFGQGTKVEIKR
On to B7, for which, in the assay with trypsin, the ELISA signal stood at 102000.

B8: KB_A07_HsTx1 (antibody, V domains shown)
VH: B1 VH
VL: NWYQQKPGKAPKLLIYAAGVASCRTPKDCADPCRKETGCPYGKCMNRKCKCNRCSRSGVPSRFSGSGSGTDFTLTISSLQPEDFATYYCQQGASPPYTFGQGTKVEIKR
B8 displayed an IC50, huKv1.3 current, QPatch patch clamp in the assay with human Kv1.3 (human) [1] of 4.7 nM.

B9: E09 (EET 5-3 KnotBody) (scFv, V domains shown)
VH: B1 VH
VL: B5 VL with I57T, H58Q, V61I, S62P, D63E, D67G, Q82R, N99R, G100A, K108Q
As to B9, the ELISA signal with trypsin amounted to 70300.

B10: C09 (EET 5-3 KnotBody) (scFv, V domains shown)
VH: B1 VH
VL: SEAPRQRVTITCGGKRCGPNGFCGSGSDGGVCPRILMRCKQDSDCLAGCTSNWYQQKPGQAPVLVVQDDSVRPSGIPERFSGSNSGNTATLTISRVEAGDGADYYCQVWDISSDLGVFGGGTKLTVLG
As to B10, in the assay with trypsin, the ELISA signal came to 9820.

B11: KB_A12_Vm24 (antibody, V domains shown)
VH: B1 VH
VL: QSVLTQPPSVSEAPRQRVTITCSGSSSNIGNNAVNWYQQLPGKAPKLLIYAAGRAAAISCVGSPECPPKCRAQGCKNGKCMNRKCKCYYCANSGVSDRFSAAKSGTSASLAINGLRSEDEADYYCAAWDDSLNGYVFGTGTKLTVLG
Consider B11, for which the IC50, huKv1.3 current, QPatch patch clamp with human Kv1.3 (human) [1] was determined as 16 nM. Further, the Kv1.1 IC50, QPatch patch clamp in the assay with human Kv1.1 (human) stood at 1220 nM. Besides, in the assay with human Kv1.3 (human) [2], the Fold difference (Kv1.1 IC50 against Kv1.3 IC50) is 102 fold and the Kv1.3 IC50, QPatch patch clamp is 12 nM.

B12: KB_A12_HsTx1 (antibody, V domains shown)
VH: B1 VH
VL: NWYQQLPGKAPKLLIYAAGRASCRTPKDCADPCRKETGCPYGKCMNRKCKCNRCANSGVSDRFSAAKSGTSASLAINGLRSEDEADYYCAAWDDSLNGYVFGTGTKLTVLG
Regarding B12, the IC50, huKv1.3 current, QPatch patch clamp with human Kv1.3 (human) [1] is 3.9 nM. In the assay with human Kv1.1 (human), this molecule showed a Kv1.1 IC50, QPatch patch clamp of 650 nM. In the assay with human Kv1.3 (human) [2], this molecule gave a Fold difference (Kv1.1 IC50 against Kv1.3 IC50) of 43 fold and a Kv1.3 IC50, QPatch patch clamp of 15 nM.

B13: F03 (EET 5-3 KnotBody) (scFv, V domains shown)
VH: B1 VH
VL: AVNWYQQLPGRAPKLLIYAAGGCGPNGFCGSGGDGGVCPRILMRCKQDSDCLAGCGAHSGIPERFSGSKSGTSASLAISGLRSEDEADYYCAAWDDSLNGWVFGGGTKVTVLG
For the molecule B13, in the assay with trypsin, the ELISA signal is 68000.

B14: G11 (EET 5-3 KnotBody) (scFv, V domains shown)
VH: B1 VH
VL: AVNWYQQLPGKAPKLLIYAAGGCGPNGFCGSGSDGGVCPRILMRCKQDSDCLAGCGQSSGVSDRFSGSKSGTSATLDITGLQTGDEADYYCGTWDNSLSVGVFGGGTKVTVLG
In the assay with trypsin, B14 returned an ELISA signal of 27600.

B15: KB_A12_ADWX1 (antibody, V domains shown)
VH: B1 VH
VL: QSVLTQPPSVSEAPRQRVTITCSGSSSNIGNNAVNWYQQLPGKAPKLLIYAAGRVGINVKCKHSRQCLKPCKDAGMRFGKCTNGKCHCTPKANSGVSDRFSAAKSGTSASLAINGLRSEDEADYYCAAWDDSLNGYVFGTGTKLTVLG
In the assay with human Kv1.3 (human) [1], B15 came in with an IC50, huKv1.3 current, QPatch patch clamp of 270 nM.

B16: KB_A12_ADWX1 short (antibody, V domains shown)
VH: B1 VH
VL: B2 VL with R24K, G25H, P27R, I30L, Q31K, M44T
For B16, the IC50, huKv1.3 current, QPatch patch clamp with human Kv1.3 (human) [1] is 170 nM. In the assay with human Kv1.1 (human), the Kv1.1 IC50, QPatch patch clamp came to 1400 nM. Moreover, in the assay with human Kv1.3 (human) [2], the Fold difference (Kv1.1 IC50 against Kv1.3 IC50) is 6 fold and the Kv1.3 IC50, QPatch patch clamp is 251 nM.

B17: KB_A12_ShK (antibody, V domains shown)
VH: B1 VH
VL: NWYQQLPGKAPKLLIYAAGRRSCIDTIPKSRCTAFQCKHSMKYRLSFCRKTCGTCANSGVSDRFSAAKSGTSASLAINGLRSEDEADYYCAAWDDSLNGYVFGTGTKLTVLG
For the molecule B17, the IC50, huKv1.3 current, QPatch patch clamp in the assay with human Kv1.3 (human) [1] came out at 8.6 nM. In the assay with human Kv1.1 (human), the Kv1.1 IC50, QPatch patch clamp worked out at 40 nM. For the same molecule, in the assay with human Kv1.3 (human) [2], the Fold difference (Kv1.1 IC50 against Kv1.3 IC50) is 3 fold; the IC50, huKv1.3 current, QPatch patch clamp came to 20 nM; the Kv1.3 IC50, QPatch patch clamp came out at 13 nM.

B18: KB_A12_Odk2 (antibody, V domains shown)
VH: B1 VH
VL: QSVLTQPPSVSEAPRQRVTITCSGSSSNIGNNAVNWYQQLPGKAPKLLIYAAGRGVPTDVKCRGSPQCIQPCKDAGMRFGKCMNGKCHCTPKANSGVSDRFSAAKSGTSASLAINGLRSEDEADYYCAAWDDSLNGYVFGTGTKLTVLG
Consider B18, for which the IC50, huKv1.3 current, QPatch patch clamp in the assay with human Kv1.3 (human) [1] amounted to 222 nM. The molecule also came in with a Kv1.1 IC50, QPatch patch clamp in the assay with human Kv1.1 (human) of 2750 nM. In the assay with human Kv1.3 (human) [2], the Fold difference (Kv1.1 IC50 against Kv1.3 IC50) came to 6 fold and the Kv1.3 IC50, QPatch patch clamp turned out to be 457 nM.

B19: E05 (EET 5-3 KnotBody) (scFv, V domains shown)
VH: B1 VH
VL: B13 VL with R11K, G33S, H58Q, R82Q, D88H, W101Y, G105T
Turning to B19, the ELISA signal in the assay with trypsin turned out to be 119000.

B20: F07 (EET 5-3 KnotBody) (scFv, V domains shown)
VH: B1 VH
VL: B5 VL with I57G, H58Q, S62P, D67G, G80R, G100A, L109V
As to B20, the ELISA signal with trypsin turned out to be 72800.

B21: E08 (EET 5-3 KnotBody) (scFv, V domains shown)
VH: B1 VH
VL: B5 VL with H58Q, V61I, S62P, D63E, D67G, Q82R, S97N, N99S
For B21, the ELISA signal with trypsin stood at 121000.

B22: E03 (EET 5-3 KnotBody) (scFv, V domains shown)
VH: B1 VH
VL: AVNWYQQLPGKAPKLLIYAAGGCGPNGFCGSGSDGGVCPRILMRCKQDSDCLAGCGRNSGIPERFSGSKSGHTATLTISRVEAGDEADYYCQVWDSSSDHVLFGGGTKLTVLG
B22 displayed an ELISA signal with trypsin of 82500.
